Consider one molecule from patent publication US6656718B2, “Modified carboxypeptidase enzymes and their use” (Cancer Research Technology Limited, priority 2000, dated 2003).

Data set [1] in a line: CPG2 enzyme activity of variants. The format is biochemical. Particulars: clarified culture supernatants. The text has this:
Thus for example, CPG2 activity may be tested by the ability of the enzyme to hydrolyse methotrexate (MTX). CPG2 hydrolysis of MTX results in a change in absorbance at 320 nm which may be measured by spectrophotometry. CPG2 catalytic activity in solid tissues can be assayed using an indirect HPLC method, measuring, for example, 2,4-diamino-N^10 methypteroic acid (DAMPA, a metabolite of MTX).
CM79 binding and CPG2 enzyme activity of all CPG2 variants were initially tested in clarified culture supernatants for CM79 binding. […] The variant V8 MFE-23::CPG2 indicated the role of the c-terminus in CM79 binding of CPG2 (FIG. 4, Table 1). CM79 bound to all the remaining CPG2 variants (Table 1).
Radiolabelled proteins were FPLC purified using a Superose 12 column (Pharmacia; PBS mobile phase 0.5 ml/min). Gamma radiation emitting fractions at 135 kDa elution point were tested for CPG2 enzyme activity. Protein concentrations were determined using Lowry reagent according to the manufacturer's protocol (BioRad).

The test system of data set [2] is CM79. The experiment in a line: CM79 binding to CPG2 variants by ELISA. To be noted: clarified culture supernatants. Details: species or system mice. The text has this:
CM79 binding and CPG2 enzyme activity of all CPG2 variants were initially tested in clarified culture supernatants for CM79 binding.
(In general: In an ELISA, binding on a coated surface is turned into a signal by an enzyme label.)

B1: wild-type CPG2: MFE-23::CPG2 fusion protein with wild-type CPG2: Region 1 KEYGVRD (SEQ ID NO:2), Region 2 GAGK (SEQ ID NO:4) (protein)
chain: ALAQKRDNVLFQAATDEQPAVIKTLEKLVNIETGTGDAEGIAAAGNFLEAELKNLGFTVTRSKSAGLVVGDNIVGKIKGRGGKNLLLMSHMDTVYLKGILAKAPFRVEGDKAYGPGIADDKGGNAVILHTLKLLKEYGVRDYGTITVLFNTDEEKGSFGSRDLIQEEAKLADYVLSFEPTSAGDEKLSLGTSGIAYVQVNITGKASHAGAAPELGVNALVEASDLVLRTMNIDDKAKNLRFNWTIAKAGNVSNIIPASATLNADVRYARNEDFDAAMKTLEERAQQKKLPEADVKVIVTRGRPAFNAGEGGKKLVDKAVAYYKEAGGTLGVEERTGGGTDAAYAALSGKPVIESLGLPGFGYHSDKAEYVDISAIPRRLYMAARLIMDLGAGK
As for B1, the “Enzyme Activity” value in data set [1] is reported as “Yes”. For the same molecule, in data set [2], the CM79 binding entry was “Yes”.
